Measured values: publication PMC9546566

Molecular target: CRY1(Human)-3×FLAG (human) (UniProt Q16526)
Assay: co-IP

Chain of UniProt Q16526 (Q16526 whole entry): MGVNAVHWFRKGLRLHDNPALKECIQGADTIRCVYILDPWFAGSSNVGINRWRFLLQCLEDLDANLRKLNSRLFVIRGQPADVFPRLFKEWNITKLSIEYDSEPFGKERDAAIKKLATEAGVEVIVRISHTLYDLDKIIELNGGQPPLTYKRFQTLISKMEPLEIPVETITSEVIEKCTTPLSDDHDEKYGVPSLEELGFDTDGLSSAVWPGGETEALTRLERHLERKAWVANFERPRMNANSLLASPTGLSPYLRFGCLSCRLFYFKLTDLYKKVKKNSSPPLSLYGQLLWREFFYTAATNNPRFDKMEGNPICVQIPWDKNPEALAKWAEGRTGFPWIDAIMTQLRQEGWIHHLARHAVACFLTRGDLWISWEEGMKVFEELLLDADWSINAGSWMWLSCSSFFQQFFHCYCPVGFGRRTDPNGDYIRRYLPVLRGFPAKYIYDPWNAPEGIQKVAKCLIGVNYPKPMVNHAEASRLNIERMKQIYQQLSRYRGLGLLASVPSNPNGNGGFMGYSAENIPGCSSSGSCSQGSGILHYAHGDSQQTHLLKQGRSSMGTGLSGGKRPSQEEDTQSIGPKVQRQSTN

PER2(Loris)-3×HA (natural protein)
ability to bind with CRY in co-IP (quantity and unit not named): 35.2
